Where two headings read alike, the source gives them in different places.
Experiments:
Assay type in all cases: binding
gRNA of HCoV-OC43 = settings: for target (spectral count, OC43 Probe I RNP capture) / background (spectral count, no-probe control): type n_48_v: 48 hours post-infection; for target (spectral count, OC43 Probe I RNP capture): infected cells, unweighted spectral count; for background (spectral count, no-probe control): no-probe control on infected cells; for target (spectral count) / background (spectral count): type g_36_m, 36 hpi, Probe I; for target (spectral count): HCoV-OC43-infected HCT-8 cells; for background (spectral count): uninfected-probe control
[1] = test system: SARS-CoV-2 gRNA and sgRNAs; settings: for target (unweighted spectral count of the protein in the RNP capture experiment): LC-MS/MS label-free quantification, probe pool not given; for back-ground (unweighted spectral count of the protein in the control experiment): protein background of the control (e.g. no-probe) experiment
SARS-CoV-2 gRNA = settings: […]; LC-MS/MS; Probe I sample (first 199 lines of Table 2)
HCoV-OC43 gRNA and sgRNA = settings: for target (unweighted spectral count, OC43 Probe II capture) / target (unweighted spectral count): tested against no-probe control; for target (unweighted spectral count, OC43 Probe II capture): FDR<10%; for target (unweighted spectral count, OC43 Probe II) / background (unweighted spectral count, no-probe control): type n_48_v, 48 hpi; for target (unweighted spectral count, OC43 Probe II): OC43 Probe II capture on infected cells; for background (unweighted spectral count, no-probe control): no-probe control on infected cells; for target (unweighted spectral count): OC43 Probe II, infected cells

B1: RTCB (protein, UniProt Q9Y3I0 1-505, looked up)
RNA-splicing ligase RtcB …: MSRSYNDELQFLEKINKNCWRIKKGFVPNMQVEGVFYVNDALEKLMFEELRNACRGGGVGGFLPAMKQIGNVAALPGIVHRSIGLPDVHSGYGFAIGNMAAFDMNDPEAVVSPGGVGFDINCGVRLLRTNLDESDVQPVKEQLAQAMFDHIPVGVGSKGVIPMNAKDLEEALEMGVDWSLREGYAWAEDKEHCEEYGRMLQADPNKVSARAKKRGLPQLGTLGAGNHYAEIQVVDEIFNEYAAKKMGIDHKGQVCVMIHSGSRGLGHQVATDALVAMEKAMKRDKIIVNDRQLACARIASPEGQDYLKGMAAAGNYAWVNRSSMTFLTRQAFAKVFNTTPDDLDLHVIYDVSHNIAKVEQHVVDGKERTLLVHRKGSTRAFPPHHPLIAVDYQLTGQPVLIGGTMGTCSYVLTGTEQGMTETFGTTCHGAGRALSRAKSRRNLDFQDVLDKLADMGIAIRVASPKLVMEEAPESYKNVTDVVNTCHDAGISKKAIKLRPIAVIKG
target (spectral count, OC43 Probe I RNP capture) (gRNA of HCoV-OC43): 7 | background (spectral count, no-probe control) (gRNA of HCoV-OC43): 1 | target (unweighted spectral count in RNP capture) ([1]; Probe II capture, […], LC-MS/MS LFQ): 14 | background (unweighted spectral count in control) ([1]; no-probe control pull-down, used as background for Probe II): 1 | target (unweighted spectral count of the protein in the RNP capture) (SARS-CoV-2 gRNA): 6 | target (unweighted spectral count, OC43 Probe II capture) (HCoV-OC43 gRNA and sgRNA; 24 hpi, type n_24_v): 4 | target (unweighted spectral count, OC43 Probe II capture) (HCoV-OC43 gRNA and sgRNA; 36 hpi, type n_36_v): 6 | target (unweighted spectral count, OC43 Probe II) (HCoV-OC43 gRNA and sgRNA): 7 | background (unweighted spectral count, no-probe control) (HCoV-OC43 gRNA and sgRNA): 1

B2: U2AF2 (protein, UniProt P26368 2-475, looked up)
Splicing factor U2AF 65 kDa …: SDFDEFERQLNENKQERDKENRHRKRSHSRSRSRDRKRRSRSRDRRNRDQRSASRDRRRRSKPLTRGAKEEHGGLIRSPRHEKKKKVRKYWDVPPPGFEHITPMQYKAMQAAGQIPATALLPTMTPDGLAVTPTPVPVVGSQMTRQARRLYVGNIPFGITEEAMMDFFNAQMRLGGLTQAPGNPVLAVQINQDKNFAFLEFRSVDETTQAMAFDGIIFQGQSLKIRRPHDYQPLPGMSENPSVYVPGVVSTVVPDSAHKLFIGGLPNYLNDDQVKELLTSFGPLKAFNLVKDSATGLSKGYAFCEYVDINVTDQAIAGLNGMQLGDKKLLVQRASVGAKNATLVSPPSTINQTPVTLQVPGLMSSQVQMGGHPTEVLCLMNMVLPEELLDDEEYEEIVEDVRDECSKYGLVKSIEIPRPVDGVEVPGCGKIFVEFTSVFDCQKAMQGLTGRKFANRVVVTKYCDPDSYHRRDFW
target (spectral count, OC43 Probe I RNP capture) (gRNA of HCoV-OC43): 8 | background (spectral count, no-probe control) (gRNA of HCoV-OC43): 1 | target (unweighted spectral count of the protein in the RNP capture experiment) ([1]; […]): 6 | back-ground (unweighted spectral count of the protein in the control experiment) ([1]; […]): 1 | target (unweighted spectral count of the protein in the RNP capture) (SARS-CoV-2 gRNA): 7 | target (unweighted spectral count, OC43 Probe II capture) (HCoV-OC43 gRNA and sgRNA; 36 hpi, type n_36_v): 6 | target (unweighted spectral count) (HCoV-OC43 gRNA and sgRNA; 12 hpi (type n_12_v)): 5 | target (unweighted spectral count, OC43 Probe II) (HCoV-OC43 gRNA and sgRNA): 12 | background (unweighted spectral count, no-probe control) (HCoV-OC43 gRNA and sgRNA): 1

B3: HNRNPUL2: host protein, UniProt Q1KMD3 (protein, UniProt Q1KMD3 1-747, looked up)
Heterogeneous nuclear …: MEVKRLKVTELRSELQRRGLDSRGLKVDLAQRLQEALDAEMLEDEAGGGGAGPGGACKAEPRPVAASGGGPGGDEEEDEEEEEEDEEALLEDEDEEPPPAQALGQAAQPPPEPPEAAAMEAAAEPDASEKPAEATAGSGGVNGGEEQGLGKREEDEPEERSGDETPGSEVPGDKAAEEQGDDQDSEKSKPAGSDGERRGVKRQRDEKDEHGRAYYEFREEAYHSRSKSPLPPEEEAKDEEEDQTLVNLDTYTSDLHFQVSKDRYGGQPLFSEKFPTLWSGARSTYGVTKGKVCFEAKVTQNLPMKEGCTEVSLLRVGWSVDFSRPQLGEDEFSYGFDGRGLKAENGQFEEFGQTFGENDVIGCFANFETEEVELSFSKNGEDLGVAFWISKDSLADRALLPHVLCKNCVVELNFGQKEEPFFPPPEEFVFIHAVPVEERVRTAVPPKTIEECEVILMVGLPGSGKTQWALKYAKENPEKRYNVLGAETVLNQMRMKGLEEPEMDPKSRDLLVQQASQCLSKLVQIASRTKRNFILDQCNVYNSGQRRKLLLFKTFSRKVVVVVPNEEDWKKRLELRKEVEGDDVPESIMLEMKANFSLPEKCDYMDEVTYGELEKEEAQPIVTKYKEEARKLLPPSEKRTNRRNNRNKRNRQNRSRGQGYVGGQRRGYDNRAYGQQYWGQPGNRGGYRNFYDRYRGDYDRFYGRDYEYNRYRDYYRQYNRDWQSYYYHHPQDRDRYYRNYYGYQGYR
target (spectral count) (gRNA of HCoV-OC43): 24 | background (spectral count) (gRNA of HCoV-OC43): 3 | target (spectral count, OC43 Probe I RNP capture) (gRNA of HCoV-OC43): 33 | background (spectral count, no-probe control) (gRNA of HCoV-OC43): 2 | target (unweighted spectral count of the protein in the RNP capture experiment) ([1]; […]): 5 | back-ground (unweighted spectral count of the protein in the control experiment) ([1]; […]): 1 | target (unweighted spectral count of the protein in the RNP capture) (SARS-CoV-2 gRNA): 6 | target (unweighted spectral count, OC43 Probe II capture) (HCoV-OC43 gRNA and sgRNA; 36 hpi, type n_36_v): 14 | target (unweighted spectral count) (HCoV-OC43 gRNA and sgRNA; 12 hpi (type n_12_v)): 6 | target (unweighted spectral count) (HCoV-OC43 gRNA and sgRNA; 24 hpi (type n_24_v)): 11 | target (unweighted spectral count, OC43 Probe II) (HCoV-OC43 gRNA and sgRNA): 25 | background (unweighted spectral count, no-probe control) (HCoV-OC43 gRNA and sgRNA): 2 | target (spectral count) (HCoV-OC43 gRNA and sgRNA; type s_36_m, HCoV-OC43-infected HCT-8 cells, 36 hpi, Probe II): 14 | background (spectral count) (HCoV-OC43 gRNA and sgRNA; type s_36_m, uninfected-probe control, 36 hpi, Probe II): 1

B4: THRAP3: host protein, UniProt Q9Y2W1 (protein, UniProt Q9Y2W1 2-955, looked up)
Thyroid hormone …: SKTNKSKSGSRSSRSRSASRSRSRSFSKSRSRSRSLSRSRKRRLSSRSRSRSYSPAHNRERNHPRVYQNRDFRGHNRGYRRPYYFRGRNRGFYPWGQYNRGGYGNYRSNWQNYRQAYSPRRGRSRSRSPKRRSPSPRSRSHSRNSDKSSSDRSRRSSSSRSSSNHSRVESSKRKSAKEKKSSSKDSRPSQAAGDNQGDEAKEQTFSGGTSQDTKASESSKPWPDATYGTGSASRASAVSELSPRERSPALKSPLQSVVVRRRSPRPSPVPKPSPPLSSTSQMGSTLPSGAGYQSGTHQGQFDHGSGSLSPSKKSPVGKSPPSTGSTYGSSQKEESAASGGAAYTKRYLEEQKTENGKDKEQKQTNTDKEKIKEKGSFSDTGLGDGKMKSDSFAPKTDSEKPFRGSQSPKRYKLRDDFEKKMADFHKEEMDDQDKDKAKGRKESEFDDEPKFMSKVIGANKNQEEEKSGKWEGLVYAPPGKEKQRKTEELEEESFPERSKKEDRGKRSEGGHRGFVPEKNFRVTAYKAVQEKSSSPPPRKTSESRDKLGAKGDFPTGKSSFSITREAQVNVRMDSFDEDLARPSGLLAQERKLCRDLVHSNKKEQEFRSIFQHIQSAQSQRSPSELFAQHIVTIVHHVKEHHFGSSGMTLHERFTKYLKRGTEQEAAKNKKSPEIHRRIDISPSTFRKHGLAHDEMKSPREPGYKAEGKYKDDPVDLRLDIERRKKHKERDLKRGKSRESVDSRDSSHSRERSAEKTEKTHKGSKKQKKHRRARDRSRSSSSSSQSSHSYKAEEYTEETEEREESTTGFDKSRLGTKDFVGPSERGGGRARGTFQFRARGRGWGRGNYSGNNNNNSNNDFQKRNREEEWDPEYTPKSKKYYLHDDREGEGSDKWVSRGRGRGAFPRGRGRFMFRKSSTSPKWAHDKFSGEEGEIEDDESGTENREEKDNIQPTTE
target (spectral count) (gRNA of HCoV-OC43): 8 | background (spectral count) (gRNA of HCoV-OC43): 1 | target (spectral count, OC43 Probe I RNP capture) (gRNA of HCoV-OC43): 10 | background (spectral count, no-probe control) (gRNA of HCoV-OC43): 2 | target (unweighted spectral count of the protein in the RNP capture experiment) ([1]; […]): 6 | back-ground (unweighted spectral count of the protein in the control experiment) ([1]; […]): 1 | target (unweighted spectral count of the protein in the RNP capture) (SARS-CoV-2 gRNA): 7 | target (unweighted spectral count, OC43 Probe II capture) (HCoV-OC43 gRNA and sgRNA; 36 hpi, type n_36_v): 12 | target (unweighted spectral count, OC43 Probe II) (HCoV-OC43 gRNA and sgRNA): 13 | background (unweighted spectral count, no-probe control) (HCoV-OC43 gRNA and sgRNA): 2

— patent US20230407373A1 (priority 2020, published 2023)
